Test results reported in US20110189154A1 (published 2011).

Target: T1, Tsa1 (S. cerevisiae 2-Cys peroxyredoxin) (S. cerevisiae, UniProt P34760 2-196)
T1 construct: Endogenous yeast protein after H2O2 treatment of the cells; also called Tsa1 protein
T1 sequence (looked up): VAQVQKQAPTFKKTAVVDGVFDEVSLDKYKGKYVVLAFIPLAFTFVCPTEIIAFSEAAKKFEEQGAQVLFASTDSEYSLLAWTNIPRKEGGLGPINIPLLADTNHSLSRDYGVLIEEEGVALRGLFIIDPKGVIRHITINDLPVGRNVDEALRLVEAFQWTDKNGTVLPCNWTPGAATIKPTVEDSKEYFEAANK
Assay: Western blot of Srx1-HA after nonreducing/reducing SDS-PAGE (FIG. 7a)
Protocol: FIG. 7 illustrates the interaction between Tsa1 and Srx1 in a covalent (disulfide bridge) and noncovalent manner; FIG. 7a: Western blotting of the HA-tagged Srx1 protein (lanes 1, 2 and 3) or of HA-tagged Srx1^C84S (lane 4) expressed in a wild-type strain (WT) (lanes 1, 2, 4) or in Δtsa1 cells (lane 3) treated for 15 min with H₂O₂ (500 μM), after SDS-PAGE electrophoresis carried out under reducing (R) (lane 2) or nonreducing (NR) (lanes 1, 3, 4) conditions; FIG. 7b: the proteins copurified with the Srx1 tagged with 6His (lanes 2, 4) or the untagged Srx1 (lanes 1, 3) under nonreducing conditions are separated by SDS-PAGE under nonreducing (lanes 1, 2) or reducing (lanes 3, 4) conditions and visualized by Coomassie blue staining. The protein bands are identified by MALDI-TOF mass spectrometry as indicated;
(A) Cells containing a tagged (HA) copy of the Srx1 protein are treated with 500 μM of H₂O₂ for 15 minutes. […]

B1: Srx1-HA (S. cerevisiae Srx1 with two HA epitopes at the C-terminal) (enzyme, not shown: small tags and cut ends)
chain: MSLQSNSVKPTEIPLSEIRRPLAPVLDPQKIDAMVATMKGIPTASKTCSLEQAEAAASAGELPPVDVLGVRVKGQTLYYAFGGCHRLQAYDRRARETQNAAFPVRCRVLPATPRQIRMYLGSSLDIE
modifications: Two HA epitopes fused at the C-terminal of Srx1 (letters not given, left out). In the assay Cys84 forms an intermolecular disulfide bridge with Tsa1.
notes: also called HA-tagged Srx1 protein
Q: Does B1 bind?
A: Result: binds
